From paper PMC10838290 (2024)

Biological target: GST-tagged ANKRD1 recombinant protein (Homo sapiens (Human), UniProt Q15327)
Experiment: GST pulldown with western blot

GST-tagged ANKRD1 recombinant protein, sequence (Q15327 whole entry): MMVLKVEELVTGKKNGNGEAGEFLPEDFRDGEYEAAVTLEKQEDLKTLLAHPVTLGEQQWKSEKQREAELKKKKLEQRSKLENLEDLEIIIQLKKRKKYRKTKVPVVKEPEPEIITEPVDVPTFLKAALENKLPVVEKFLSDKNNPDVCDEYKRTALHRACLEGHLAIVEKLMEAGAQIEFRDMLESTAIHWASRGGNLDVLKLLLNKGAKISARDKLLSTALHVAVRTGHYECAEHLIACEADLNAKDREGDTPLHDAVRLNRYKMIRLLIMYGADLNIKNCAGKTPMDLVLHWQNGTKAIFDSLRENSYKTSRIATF

- binding result: no binding
B1: HIS-tagged JUN (truncated form 1-241aa) (protein)
chain: MTAKMETTFYDDALNASFLPSESGPYGYSNPKILKQSMTLNLADPVGSLKPHLRAKNSDLLTSPDVGLLKLASPELERLIIQSSNGHITTTPTPTQFLCPKNVTDEQEGFAEGFVRALAELHSQNTLPSVTSAAQPVNGAGMVAPAVASVAGGSGSGGFSASLHSEPPVYANLSNFNPGALSSGGGAPSYGAAGLAFPAQPQQQQQPPHHLPQQMPVQHPRLQALKEEPQTVPEMPGETPP
